Assay [1] deals with T1, CD3ε (aa 1-27)-chicken albumin fusion protein, human (human; chicken, UniProt P07766 22-48).
T1 construct: range 1-27; Immobilized on CM5 sensor chips; The order of the parts follows the printed name; also called Human CD3; CD3E fusion protein; not shown: chicken albumin
Nature of the assay: SPR, CD3ε (aa 1-27)-chicken albumin immobilized on CM5 chip, construct in solution. As to the method: CD3 binding affinity was evaluated using surface plasmon resonance. A CD3E fusion protein (CD3ε (aa 1-27)-chicken albumin) was immobilized on CM5 Sensor Chips in the presence of a sodium acetate buffer (pH 4.5). The DLL3 multichain TCE proteins described above diluted in HBS-EP buffer were applied at different concentrations to determine the molecule association rates with CD3ε. HBP-EP buffer alone was then added to allow analysis of the molecule dissociation rates.

Assay [2] deals with T2, cynomolgus monkey DLL3 (cynomolgus monkey, UniProt A0A2K5WSR1 27-584).
T2 construct: whole, on cells; also called cyno DLL3
T2 sequence: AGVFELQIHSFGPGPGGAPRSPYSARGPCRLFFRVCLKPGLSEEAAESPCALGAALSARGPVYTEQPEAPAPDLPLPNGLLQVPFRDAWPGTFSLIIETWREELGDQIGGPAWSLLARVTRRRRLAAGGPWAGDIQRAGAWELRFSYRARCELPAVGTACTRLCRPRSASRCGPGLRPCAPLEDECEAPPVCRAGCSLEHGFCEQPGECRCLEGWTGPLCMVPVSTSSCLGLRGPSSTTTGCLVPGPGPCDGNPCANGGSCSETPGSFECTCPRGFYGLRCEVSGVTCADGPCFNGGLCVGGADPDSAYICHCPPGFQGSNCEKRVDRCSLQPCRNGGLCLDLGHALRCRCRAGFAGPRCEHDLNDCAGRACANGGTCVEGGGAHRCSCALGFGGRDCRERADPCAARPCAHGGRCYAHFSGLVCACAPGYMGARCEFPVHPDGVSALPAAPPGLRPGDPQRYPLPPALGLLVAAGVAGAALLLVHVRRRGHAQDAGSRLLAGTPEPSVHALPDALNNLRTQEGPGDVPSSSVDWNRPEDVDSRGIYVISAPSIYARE
Nature of the assay: flow cytometry, on-cell binding to CHO cells stably expressing cynomolgus monkey DLL3, anti-Fc detection. As to the method:
(§1) In particular, on-cell binding affinity for DLL3 was evaluated using Chinese Hamster Ovary (CHO) cells engineered to stably express either human or cynomolgus monkey DLL3. The engineered CHO cells were incubated with DLL3 multichain TCE proteins comprising two different DLL3-binders (“DLL3_1” or “DLL3_2”) for 4 hours at 4° C. in buffer (phosphate buffered saline with 1% fetal bovine serum). After incubation, the cells were washed in buffer, and then bound DLL3 multichain proteins were detected by incubation with a fluorescently labeled antibody directed to the fragment crystallizable (Fc) region of the proteins. Bound proteins were analyzed by flow cytometry and the EC50 values were calculated from non-linear regression analysis using GraphPad Prism.
(In general: In flow cytometry, cells or beads pass a laser one at a time.)

In assay [3] the target is T2, cynomolgus monkey DLL3. Nature of the assay: cell-based or functional assay.
In assay [4] the target is T3, human delta-like ligand 3 (DLL3) (human, UniProt Q9NYJ7 27-618).
T3 sequence (looked up): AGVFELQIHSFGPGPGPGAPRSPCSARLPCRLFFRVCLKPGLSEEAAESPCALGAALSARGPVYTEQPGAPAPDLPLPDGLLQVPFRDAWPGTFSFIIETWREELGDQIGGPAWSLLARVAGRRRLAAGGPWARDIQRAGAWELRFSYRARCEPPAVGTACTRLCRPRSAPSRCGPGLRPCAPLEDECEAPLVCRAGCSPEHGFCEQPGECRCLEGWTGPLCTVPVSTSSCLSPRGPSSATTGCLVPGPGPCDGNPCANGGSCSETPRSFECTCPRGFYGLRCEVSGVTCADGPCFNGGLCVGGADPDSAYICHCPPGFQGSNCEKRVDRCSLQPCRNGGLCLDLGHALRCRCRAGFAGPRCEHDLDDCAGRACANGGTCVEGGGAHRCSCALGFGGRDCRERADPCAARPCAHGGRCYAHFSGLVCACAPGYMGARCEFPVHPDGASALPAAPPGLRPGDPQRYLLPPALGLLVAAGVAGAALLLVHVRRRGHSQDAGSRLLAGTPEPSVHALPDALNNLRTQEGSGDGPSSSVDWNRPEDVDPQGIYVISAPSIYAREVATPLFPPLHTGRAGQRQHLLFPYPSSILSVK
Nature of the assay: cell-based or functional assay.

Assay [5] addresses T3, human delta-like ligand 3 (DLL3). Nature of the assay: flow cytometry, on-cell binding to CHO cells stably expressing human DLL3, anti-Fc detection. How it is done: as §1

T1 sequence (P07766 22-48 limits assumed): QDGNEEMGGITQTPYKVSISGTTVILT

B1: DLL3_2 hetero IgG (SEFL2)(YTE) (bispecific antibody)
heavy 1: not shown
light 1: DIVMTQTPLSLSVTPGQPASISCKSSQSLLHSDGKTFLYWYLQKPGQPPQLLIYEVSNRFSGVPDRFSGSGSGTDFTLKISRVEAEDVGVYYCLQGIHLPFTFGPGTKVEIKRTVAAPSVFIFPPSDEQLKSGTASVVCLLNNFYPREAKVQWKVDNALQSGNSQESVTEQDSKDSTYSLESTLTLSKADYEKHKVYACEVTHQGLSSPVTKSFNRGEC
heavy 2: EVQLVESGGGLVQPGGSLKLSCAASGFTFNKYAINWVRQAPGKGLEWVARIRSKYNNYATYYADAVKDRFTISRDDSKNTVYLQMNNLKTEDTAVYYCARAENIGTSYISYWAYWGQGTLVTVSSASTKGPSVFPLAPSSKSTSGGTAALGCLVKDYFPEPVTVSWNSGALTSGVHTFPAVLQSSGLYSLESVVTVPSSSLGTQTYICNVNHKPSNTKVDKKVEPKSCDKTHTCPPCPAPELLGGPSVFLFPPKPKDTLYITREPEVTCVVVDVSHEDPEVKFNWYVDGVEVHNAKTKPCEEQYGSTYRCVSVLTVLHQDWLNGKEYKCKVSNKALPAPIEKTISKAKGQPREPQVYTLPPSRKEMTKNQVSLTCLVKGFYPSDIAVEWESNGQPENNYKTTPPVLKSDGSFFLYSKLTVDKSRWQQGNVFSCSVMHEALHNHYTQKSLSLSPGK
light 2: not shown
Regarding B1, the Kd (as a rule, the constant that tells how readily two partners part at equilibrium) in assay [1] was determined as 7.84 nM. Besides, the EC50 (usually the concentration giving half of the maximal effect) with cynomolgus monkey DLL3 [2] turned out to be 0.04 nM; in assay [5], 0.035 nM. Besides, in the assay with cynomolgus monkey DLL3 [3], the “T cell dependent cellular cytotoxicity (TDCC) EC50, CHO-cyno DLL3” value was found to be 22.7 pM. Further, the “T cell dependent cellular cytotoxicity (TDCC) EC50, CHO-huDLL3” value in assay [4] was determined as 100 pM.

Values taken from patent US20250282869A1 (Amgen, published 2025).
